Results reported in US12156920B2, “Double-labeled probe for molecular imaging and use thereof” (Deutsches Krebsforschungszentrum, priority 2017, dated 2024).

How the values were obtained:
[1] = Biodistribution (organ distribution) of 68Ga-labeled compounds; format: in vivo, mice; conditions: male, BALB/c nu/nu, mouse, in vivo, iv, 60 pmol, total radioactivity
Description: (§1) The precursor peptides [1 nmol in HEPES buffer (580 mg/ml), 90 μL] were added to 40 μL [^68Ga]Ga^3+ eluate (˜40 MBq). The pH was adjusted to 3.8 using 30% NaOH and 10% NaOH, respectively. The reaction mixture was incubated at 98° C. for 10 minutes. The radiochemical yield (RCY) was determined by HPLC. For the experimental tumor models 5×10^6 cells of LNCaP (in 50% Matrigel; Becton Dickinson, Heidelberg, Germany) were subcutaneously inoculated into the right trunk of 7- to 8-week-old male BALB/c nu/nu mice (Charles River). The tumors were allowed to grow until approximately 1 cm^3 in size. The ^68Ga-labeled compounds were injected into a tail vein (1-2 MBq; 60 pmol). […] Organs of interest were dissected, blotted dry, and weighed. The radioactivity was measured using a gamma counter and calculated as % ID/g. All animal experiments complied with the current laws of the Federal Republic of Germany.

[2] = tested on: LNCaP-tumor bearing balb/c nu/nu mice; experiment: as above; format: in vivo; conditions: mouse, in vivo
Description: as §1

PSMA = biological target: T1, PSMA (Homo sapiens, UniProt Q04609); experiment: Competitive cell binding assay on LNCaP cells (PSMA binding affinity); conditions: competition against 0.2 nM 68Ga-labeled PSMA-10
T1 construct: endogenous in cells; host or cells: LNCaP cells (ATCC CRL-1740)
Description: PSMA^+ LNCaP cells (ATCC CRL-1740) were cultured in RPMI medium supplemented with 10% fetal calf serum and 2 mmol/L L-glutamine (all from PAA). Cells were grown at 37° C. in humidified air with 5% CO2 and were harvested using trypsin-ethylenediaminetetraacetic acid (trypsin-EDTA; 0.25% trypsin, 0.02% EDTA, Invitrogen).
The competitive cell binding assay and internalization experiments were performed as described previously (4). Briefly, the cells (10^5 per well) were incubated with a 0.2 nM solution of ^68Ga-labeled radioligand [Glu-urea-Lys(Ahx)]2-HBED-CC (PSMA-10, precursor ordered from ABX, Radeberg, Germany) in the presence of 12 different concentrations of analyte (0-5000 nM, 100 μL/well). After incubation, the mixture was removed and the wells were washed 3 times with PBS using a multiscreen vacuum manifold (Millipore, Billerica, Mass.). Cell-bound radioactivity was measured using a gamma counter (Packard Cobra II, GMI, Minnesota, USA). The 50% inhibitory concentration (IC50) values were calculated by fitting the data using a nonlinear regression algorithm (GraphPad Software).

[3] = Organ distribution Tumor (tumor accumulation)
[4] = Tumor-to-Organ ratio T/Intestine

T1 sequence (Q04609 whole entry): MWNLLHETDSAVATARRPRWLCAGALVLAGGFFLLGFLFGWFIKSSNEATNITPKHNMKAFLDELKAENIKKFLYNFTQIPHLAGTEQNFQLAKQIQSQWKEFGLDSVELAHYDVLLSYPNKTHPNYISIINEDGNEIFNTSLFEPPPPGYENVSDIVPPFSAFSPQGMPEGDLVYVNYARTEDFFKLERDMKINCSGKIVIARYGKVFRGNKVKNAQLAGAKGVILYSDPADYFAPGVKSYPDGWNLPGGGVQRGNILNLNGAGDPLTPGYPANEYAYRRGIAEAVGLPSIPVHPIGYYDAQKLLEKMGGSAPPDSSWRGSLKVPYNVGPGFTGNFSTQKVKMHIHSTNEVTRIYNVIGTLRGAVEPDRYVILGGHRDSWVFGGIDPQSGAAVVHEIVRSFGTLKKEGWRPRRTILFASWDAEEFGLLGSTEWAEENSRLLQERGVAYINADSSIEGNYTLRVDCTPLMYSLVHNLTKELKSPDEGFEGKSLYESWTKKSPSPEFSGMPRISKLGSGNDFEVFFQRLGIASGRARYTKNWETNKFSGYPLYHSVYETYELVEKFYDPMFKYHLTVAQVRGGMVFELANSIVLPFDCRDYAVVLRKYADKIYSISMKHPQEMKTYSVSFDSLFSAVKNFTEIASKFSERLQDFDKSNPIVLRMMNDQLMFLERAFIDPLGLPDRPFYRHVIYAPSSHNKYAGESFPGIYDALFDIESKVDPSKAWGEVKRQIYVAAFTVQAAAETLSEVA

SMILES | tissue uptake at 1 h ([1]; Organ distribution Blood) [%ID/g] | tissue uptake at 1 h ([1]; Organ distribution Brain) [%ID/g] | tissue uptake at 1 h ([1]; Organ distribution Heart) [%ID/g] | tissue uptake at 1 h ([1]; Organ distribution Intestine) [%ID/g] | tissue uptake at 1 h ([1]; Organ distribution Kidney) [%ID/g] | tissue uptake at 1 h ([1]; Organ distribution Liver) [%ID/g] | tissue uptake at 1 h ([1]; Organ distribution Lung) [%ID/g] | tissue uptake at 1 h ([1]; Organ distribution Muscle) [%ID/g] | tissue uptake at 1 h ([1]; Organ distribution Spleen) [%ID/g] | tissue uptake at 1 h [1, 3] [%ID/g] | tissue to tissue ratio at 1 h ([1]; Tumor-to-Organ ratio T/Blood) | tissue to tissue ratio at 1 h ([1]; Tumor-to-Organ ratio T/Brain) | tissue to tissue ratio at 1 h ([1]; Tumor-to-Organ ratio T/Heart) | tissue to tissue ratio at 1 h [1, 4] | tissue to tissue ratio at 1 h ([1]; Tumor-to-Organ ratio T/Kidney) | tissue to tissue ratio at 1 h ([1]; Tumor-to-Organ ratio T/Liver) | tissue to tissue ratio at 1 h ([1]; Tumor-to-Organ ratio T/Lung) | tissue to tissue ratio at 1 h ([1]; Tumor-to-Organ ratio T/Muscle) | tissue to tissue ratio at 1 h ([1]; Tumor-to-Organ ratio T/Spleen) | further results
CC1(C)C(/C=C/C2=C(Oc3ccc(S(=O)(=O)O)cc3)C(=C\C=C3/N(CCCCS(=O)(=O)O)c4ccc(S(=O)(=O)O)cc4C3(C)C)/CCC2)=[N+](CCCCCC(=O)NCCOCCOCCNC(=O)CCc2ccc(O)c(CN(CCN(CC(=O)O)Cc3cc(CCC(=O)NCc4cn(CCCCC(=O)NC(CCC(=O)O)C(=O)NC(Cc5cnc[nH]5)C(=O)NCCCCC(NC(=O)NC(CCC(=O)O)C(=O)O)C(=O)O)nn4)ccc3O)CC(=O)O)c2)c2ccc(S(=O)(=O)O)cc21 (stereo not shown) [PSMA-(HE)1-HBED-CC-PEG2-IRDye800CW, Glu-urea-Lys-(HE)1-HBED-CC-PEG2-IRDye800CW] | 1.52 | 0.3 | 0.94 | 1.29 | 84.3 | 1.19 | 2.46 | 1.03 | 8.17 | 3.92 | 2.58 | 13 | 4.19 | 3.05 | 0.05 | 3.3 | 1.6 | 3.81 | 0.48 | 
CC1(C)C(/C=C/C2=C(Oc3ccc(S(=O)(=O)O)cc3)C(=C\C=C3/N(CCCCS(=O)(=O)O)c4ccc(S(=O)(=O)O)cc4C3(C)C)/CCC2)=[N+](CCCCCC(=O)NCCOCCOCCNC(=O)CCc2ccc(O)c(CN(CCN(CC(=O)O)Cc3cc(CCC(=O)NCc4cn(CCCCC(=O)N[C@@H](CCC(=O)O)C(=O)N[C@@H](Cc5cnc[nH]5)C(=O)N[C@@H](CCC(=O)O)C(=O)N[C@@H](Cc5cnc[nH]5)C(=O)N[C@@H](CCC(=O)O)C(=O)N[C@@H](Cc5cnc[nH]5)C(=O)NCCCC[C@H](NC(=O)N[C@@H](CCC(=O)O)C(=O)O)C(=O)O)nn4)ccc3O)CC(=O)O)c2)c2ccc(S(=O)(=O)O)cc21 [PSMA-(HE)3-HBED-CC-PEG2-IRDye800CW, Glu-urea-Lys-(HE)3-HBED-CC-PEG2-IRDye800CW] | 1.12 | 0.18 | 1.36 | 1.31 | 109 | 1.25 | 2.34 | 1.18 | 3.47 | 7.59 | 6.8 | 42.6 | 5.57 | 5.8 | 0.07 | 6.08 | 3.24 | 6.45 | 2.19 | tissue uptake at 2 h ([1]; Organ distribution Blood): 0.65 %ID/g; tissue uptake at 2 h ([1]; Organ distribution Brain): 0.23 %ID/g; tissue uptake at 2 h ([1]; Organ distribution Heart): 0.53 %ID/g; tissue uptake at 2 h ([1]; Organ distribution Intestine): 0.67 %ID/g; tissue uptake at 2 h ([1]; Organ distribution Kidney): 55.8 %ID/g; tissue uptake at 2 h ([1]; Organ distribution Liver): 0.76 %ID/g; tissue uptake at 2 h ([1]; Organ distribution Lung): 0.89 %ID/g; tissue uptake at 2 h ([1]; Organ distribution Muscle): 0.47 %ID/g; tissue uptake at 2 h ([1]; Organ distribution Spleen): 0.76 %ID/g; tissue uptake at 2 h ([1]; Organ distribution Tumor): 3.1 %ID/g; Tumor-to-Organ ratio T/Blood [2]: 6.80; Tumor-to-Organ ratio T/Brain [2]: 42.63; Tumor-to-Organ ratio T/Heart [2]: 5.57; Tumor-to-Organ ratio T/Intestine [2]: 5.80; Tumor-to-Organ ratio T/Kidney [2]: 0.07; Tumor-to-Organ ratio T/Liver [2]: 6.08; Tumor-to-Organ ratio T/Lung [2]: 3.24; Tumor-to-Organ ratio T/Muscle [2]: 6.45; Tumor-to-Organ ratio T/Spleen [2]: 2.19; Ki (PSMA): 36.7 ± 9.77 nM
